Here are results for 2 molecules from patent publication US20140087995A1 (published 2014).

Numbered stars: 1 amine (or outer) side, 2 acyl side, 3 side chain; on linkers, the order of the positions; unused ones are H or OH. Bridge positions count the residues as written; N and C are the ends. Side chains are listed from the residue outwards. Ends that are not written are not given here. * marks the point of attachment. C20 diacid = O=C(O)CCCCCCCCCCCCCCCCCCC(=O)*; γGlu = O=C(O)[C@H](CCC(=O)[*:2])N[*:1]

Broadly, the IC50 is the concentration at which inhibition is half-maximal. Low values mean greater potency, high ones weaker potency.

In this assay the target is T1, human amylin receptor (human, UniProt P30988 25-474; O60896 24-148, limits assumed).
T1 construct: whole, on cells; Used as cell membranes prepared from the Amylin 3(a)/CRE-luc BHK cells (Assay V); also called hAmylin-R; hAmylinR
T1 sequence (looked up) 1: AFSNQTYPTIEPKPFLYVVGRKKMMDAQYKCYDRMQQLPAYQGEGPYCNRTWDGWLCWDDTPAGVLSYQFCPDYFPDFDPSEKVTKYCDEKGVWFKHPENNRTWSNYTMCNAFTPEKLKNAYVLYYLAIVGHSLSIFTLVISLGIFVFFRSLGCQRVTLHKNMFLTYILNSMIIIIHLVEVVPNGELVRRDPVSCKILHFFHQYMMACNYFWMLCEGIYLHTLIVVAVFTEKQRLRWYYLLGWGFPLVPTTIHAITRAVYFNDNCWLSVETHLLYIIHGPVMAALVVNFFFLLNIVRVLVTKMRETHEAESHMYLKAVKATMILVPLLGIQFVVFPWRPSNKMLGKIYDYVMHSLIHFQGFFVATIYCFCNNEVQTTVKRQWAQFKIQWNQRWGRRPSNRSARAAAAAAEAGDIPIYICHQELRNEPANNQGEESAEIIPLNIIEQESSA
T1 sequence (looked up) 2: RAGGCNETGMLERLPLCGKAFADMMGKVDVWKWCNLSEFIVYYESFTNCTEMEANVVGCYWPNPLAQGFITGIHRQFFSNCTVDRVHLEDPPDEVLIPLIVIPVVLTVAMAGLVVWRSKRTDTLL
The experiment in a line: SPA competition vs 125I-rat amylin, membranes of amylin 3(a) receptor BHK cells (Assay V). The gist of the method:
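Cell membranes were prepared by homogenisation in Na-HEPES/EDTA buffer, pH 7.4, and stored at −80° C. They were then coupled to SPA beads at 35 ng/μL final and exposed to compounds in assay buffer containing CaCl2, MgCl₂, OA and Tween20. After 120 min at 25° C, plates were counted and IC₅₀ derived.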

B1: N^-1-[(4S)-4-carboxy-4-(19-carboxynonadecanoylamino)butanoyl]-Gly[Arg1,His14,Arg17,Pro21,Pro27,Pro34]-h-amylin (peptide)
peptide: {C20 diacid-γGlu}-GRCNTATCATQRLAHFLRHSSPNFGAIPSSTNVGPNTY-NH2
modifications: disulfide 3-8
SMILES: CC[C@H](C)[C@H](NC(=O)[C@H](C)NC(=O)CNC(=O)[C@H](Cc1ccccc1)NC(=O)[C@H](CC(N)=O)NC(=O)[C@@H]1CCCN1C(=O)[C@H](CO)NC(=O)[C@H](CO)NC(=O)[C@H](Cc1c[nH]cn1)NC(=O)[C@H](CCCNC(=N)N)NC(=O)[C@H](CC(C)C)NC(=O)[C@H](Cc1ccccc1)NC(=O)[C@H](Cc1c[nH]cn1)NC(=O)[C@H](C)NC(=O)[C@H](CC(C)C)NC(=O)[C@H](CCCNC(=N)N)NC(=O)[C@H](CCC(N)=O)NC(=O)[C@@H](NC(=O)[C@H](C)NC(=O)[C@@H]1CSSC[C@H](NC(=O)[C@H](CCCNC(=N)N)NC(=O)CNC(=O)CC[C@H](NC(=O)CCCCCCCCCCCCCCCCCCC(=O)O)C(=O)O)C(=O)N[C@@H](CC(N)=O)C(=O)N[C@@H]([C@@H](C)O)C(=O)N[C@@H](C)C(=O)N[C@@H]([C@@H](C)O)C(=O)N1)[C@@H](C)O)C(=O)N1CCC[C@H]1C(=O)N[C@@H](CO)C(=O)N[C@@H](CO)C(=O)N[C@H](C(=O)N[C@@H](CC(N)=O)C(=O)N[C@H](C(=O)NCC(=O)N1CCC[C@H]1C(=O)N[C@@H](CC(N)=O)C(=O)N[C@H](C(=O)N[C@@H](Cc1ccc(O)cc1)C(N)=O)[C@@H](C)O)C(C)C)[C@@H](C)O
As for B1, the concentration for half-maximal inhibition (IC50) was 0.217 nM.

B2: N^ε-[(4S)-4-carboxy-4-(19-carboxynonadecanoylamino)butanoyl]Lys[Arg1,Arg17,Pro21,Pro27,His35]-h-amylin (peptide)
peptide: K([γGlu-C20 diacid])RCNTATCATQRLANFLRHSSPNFGAIPSSTNVGSHTY-NH2
modifications: disulfide 3-8; N-terminus assumed
SMILES: CC[C@H](C)[C@H](NC(=O)[C@H](C)NC(=O)CNC(=O)[C@H](Cc1ccccc1)NC(=O)[C@H](CC(N)=O)NC(=O)[C@@H]1CCCN1C(=O)[C@H](CO)NC(=O)[C@H](CO)NC(=O)[C@H](Cc1c[nH]cn1)NC(=O)[C@H](CCCNC(=N)N)NC(=O)[C@H](CC(C)C)NC(=O)[C@H](Cc1ccccc1)NC(=O)[C@H](CC(N)=O)NC(=O)[C@H](C)NC(=O)[C@H](CC(C)C)NC(=O)[C@H](CCCNC(=N)N)NC(=O)[C@H](CCC(N)=O)NC(=O)[C@@H](NC(=O)[C@H](C)NC(=O)[C@@H]1CSSC[C@H](NC(=O)[C@H](CCCNC(=N)N)NC(=O)[C@@H](N)CCCCNC(=O)CC[C@H](NC(=O)CCCCCCCCCCCCCCCCCCC(=O)O)C(=O)O)C(=O)N[C@@H](CC(N)=O)C(=O)N[C@@H]([C@@H](C)O)C(=O)N[C@@H](C)C(=O)N[C@@H]([C@@H](C)O)C(=O)N1)[C@@H](C)O)C(=O)N1CCC[C@H]1C(=O)N[C@@H](CO)C(=O)N[C@@H](CO)C(=O)N[C@H](C(=O)N[C@@H](CC(N)=O)C(=O)N[C@H](C(=O)NCC(=O)N[C@@H](CO)C(=O)N[C@@H](Cc1c[nH]cn1)C(=O)N[C@H](C(=O)N[C@@H](Cc1ccc(O)cc1)C(N)=O)[C@@H](C)O)C(C)C)[C@@H](C)O
notes: also called compound 44
B2 registered an IC50 of 0.275 nM.
